The values that follow come from publication PMC8395731.

For the experiment, the target named is 6xHis-tagged mTOR fragment ∆N-FAT-M (human) (UniProt P42345). Briefly: BLI; BLItz; His-tagged mTOR fragments (1 µM) immobilised on Ni-NTA biosensors, tagless RHEB as analyte (0.5 and 1 µM, or 0.05 and 0.1 µM for ∆ATP), no GTP; 10 mM HEPES pH 7.4, 100 mM NaCl, 0.02% Tween-20, 5 mg/mL BSA, 25 °C; global 1:1 fit. Background: Biolayer interferometry detects binding as a change in optical thickness at a sensor tip.

Broadly, the Kd is the constant that tells how readily two partners part at equilibrium. The substance “6xHis-tag cleaved-RHEB (from UniProt Q15382 1-169) (natural protein)” registered a Kd of 1.26 µM.
